Changes are numbered by the printed parent chain. Numbers in names are those of the source. One block for each binder: values may come before it. Primed or numbered codes have the meaning given here. Ends that are not written are not given here. Biotin′ = not defined here
Tests used:
[1] = target: T1, human CD52 (wildtype) (human, not fully specified (residue 3); also: N-linked glycan, GPI anchor); test: flow cytometry, CHO-CD52 cells
T1 construct: also called huCD52; hCD52
T1 chain: GQNDTSQTSSPS

[2] = target: T1, human CD52 (wildtype); test: flow cytometry, CHO-CD52 cells, 12-point titration
Description: The EC50 values of selected anti-CD52 antibodies were estimated using CHO cells engineered to express CD52. CHO-CD52 cells were trypsinized in 0.25% trypsin, collected, and rinsed with PBS/5% FBS. Cells were then deposited into round-bottom 96 well plates at 1E5 cells per well. Primary antibody staining was done with a 12 point serial dilution (1:2) of each anti-CD52 chimeric antibody starting at 50 μg/mL. […] Cells were washed 3 times in ice-cold PBS/5% FBS before and after each incubation. Cells were fixed with PBS containing 2% methanol-free paraformaldehyde and evaluated by flow cytometry.

[3] = target: T1, human CD52 (wildtype); test: flow cytometry, human CD4+ T cells from PBMC, FITC goat F(ab)2 anti-human Fc gamma secondary, GraphPad Prism fit (Example 29)
Description: (§1) The EC₅₀ values of chimeric and humanized anti-CD52 antibodies were estimated using CD4+ T cells isolated from healthy donor PBMCs obtained from commercial sources (Bioreclamation, NY, USA). CD4+ T cells were isolated by negative selection using an EasySep kit (Stem Cell Technologies). […] Briefly, human CD4+ T cells were isolated from 50 ml of peripheral blood from healthy volunteers (Bioreclamation), and huCD52 transgenic mouse CD4+ T cells were isolated from spleen tissue. Cells were rinsed with PBS/5% FBS and deposited into round-bottom 96 well plates at 1×10⁵ cells per well. Primary antibody staining was done with an 8 point serial dilution (1:3) of each anti-CD52 chimeric and humanized antibody starting at 100 μg/mL. […] Cells were washed 3 times in ice-cold PBS/5% FBS before and after each incubation. Cells were fixed with PBS containing 2% methanol-free paraformaldehyde and evaluated by flow cytometry. The flow cytometry data was analyzed using GraphPad Prism software to determine an EC₅₀ value with 95% confidence interval.

[4] = target: T1, human CD52 (wildtype); test: flow cytometry, huCD52 transgenic mouse CD4+ T cells, FITC goat F(ab)2 anti-human Fc gamma secondary, GraphPad Prism fit (Example 29)
Description: as §1

[5] = target: T2, MUT 9 alanine-scanning mutant hCD52 peptide (human); test: Biacore T100 SPR, antibody immobilized, peptide injected at up to 500 nM;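 also: Amine-coupled antibody (10,000 RU), 25 °C in HBS-EP+ pH 7.4, 5 min association then 5 min dissociation, 1:1 fit with blank flow cell and 0 nM double-referencing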
T2 construct: Synthetic
T2 peptide: GQNDTSQTASPSADC
Excerpt: (§2) The carboxymethyl dextran surface was activated using a 1:1 mixture of 0.1M N-hydroxysuccinimide (NHS) and 0.4M N-ethyl-N′-(3-dimethylaminopropyl)carbodiimide hydrochloride (EDC), allowing the surface to bind reactive amine groups on the antibodies. […] Following antibody immobilization, the reactive sensor chip surface was quenched using 1M ethanolamine hydrochloride/NaOH pH 8.5. One flow cell on each chip was a blank reference surface, and subsequent flow cells were immobilized with 10,000 RU of antibody.
(§3) Peptides were diluted into the assay running buffer, HBS-EP+ (10 mM HEPES, 150 mM NaCl, 0.05% P20 surfactant, 3 mM EDTA, pH 7.4). Duplicates of 100 nM samples were included. […] The T100 instrument sample chamber and assay temperatures were set to 4° C. and 25° C., respectively. The human CD52 peptide samples were injected for five minutes at a 50 μl/min flow rate to measure association, and washed in HBS-EP+ for five minutes at a 50 μl/min flow rate to measure dissociation. The antibody surface was stripped of any remaining bound peptide using a sixty second injection of 10 mM glycine-HCl pH 2.0 at a 50 μl/min flow rate. Analysis was performed using Biacore T100 Kinetics Evaluation software v2.0 (GE Healthcare). Data was fit to a 1:1 model with reference flow cell and 0 nM concentration subtraction (double-reference subtraction).

[6] = target: T3, MUT 1 alanine-scanning mutant hCD52 peptide (human); test: as above
T3 construct: Synthetic
T3 peptide: AQNDTSQTSSPSADC
Excerpt: as §2, §3

[7] = target: T4, MUT 2 alanine-scanning mutant hCD52 peptide (human); test: as above
T4 construct: Synthetic
T4 peptide: GANDTSQTSSPSADC
Excerpt: as §2, §3

[8] = target: T5, MUT 6 alanine-scanning mutant hCD52 peptide (human); test: as above
T5 construct: Synthetic
T5 peptide: GQNDTAQTSSPSADC
Excerpt: as §2, §3

[9] = target: T6, MUT 3 alanine-scanning mutant hCD52 peptide (human); test: as above
T6 construct: Synthetic
T6 peptide: GQADTSQTSSPSADC
Excerpt: as §2, §3

[10] = target: T7, MUT 5 alanine-scanning mutant hCD52 peptide (human); test: as above
T7 construct: Synthetic
T7 peptide: GQNDASQTSSPSADC
Excerpt: as §2, §3

[11] = target: T8, MUT 10 alanine-scanning mutant hCD52 peptide (human); test: as above
T8 construct: Synthetic
T8 peptide: GQNDTSQTSAPSADC
Excerpt: as §2, §3

[12] = target: T9, WT 1 wildtype human CD52 peptide (human, not fully specified (residue 15); printed as GQNDTSQTSSPSADK-Biotin); test: as above
T9 construct: Synthetic
T9 peptide: GQNDTSQTSSPSADK-{Biotin′}
Excerpt: as §2, §3

[13] = target: T10, MUT 4 alanine-scanning mutant hCD52 peptide (human); test: as above
T10 construct: Synthetic
T10 peptide: GQNATSQTSSPSADC
Excerpt: as §2, §3

[14] = target: T11, MUT 12 alanine-scanning mutant hCD52 peptide (human); test: as above
T11 construct: Synthetic
T11 peptide: GQNDTSQTSSPAADC
Excerpt: as §2, §3

[15] = target: T1, human CD52 (wildtype); test: flow cytometry, CD4+ T cells, 8-point titration
Description: as §1

[16] = target: T2, MUT 9 alanine-scanning mutant hCD52 …; test: Biacore T100, antibody immobilised on a CM5 chip, peptide injected
Excerpt: as §2, §3

[17] = target: T12, MUT 8 alanine-scanning mutant hCD52 peptide (human); test: Biacore T100 SPR, antibody immobilized, peptide injected at up to 500 nM;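 also: Amine-coupled antibody (10,000 RU), 25 °C in HBS-EP+ pH 7.4, 5 min association then 5 min dissociation, 1:1 fit with blank flow cell and 0 nM double-referencing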
T12 construct: Synthetic
T12 peptide: GQNDTSQASSPSADC
Excerpt: as §2, §3

[18] = target: T13, MUT 7 alanine-scanning mutant hCD52 peptide (human); test: as above
T13 construct: Synthetic
T13 peptide: GQNDTSATSSPSADC
Excerpt: as §2, §3

B1: chimeric 9D9 antibody (antibody, human IgG1, V domains shown)
VH: EVKLEESGGGLVQPGGSMKLSCAASGFTFSDAWMDWVRQSPEKGLELTAEIRNKAKNHATYYAESVKGRFTISRDDSKSRVYLQMNSLRTEDTGIYYCTTLDSWGQGTSVTVSS
VL: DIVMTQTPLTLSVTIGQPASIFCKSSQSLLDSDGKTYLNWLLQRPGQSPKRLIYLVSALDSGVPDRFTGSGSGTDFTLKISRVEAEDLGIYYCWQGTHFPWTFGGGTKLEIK
notes: also called 9D9-Chi; 9D9-chimeric
- EC50 [1]: 5 to 7 µg/mL
- EC50 [2]: 6.05 µg/mL

B2: humanized antibody 4B10-H1/K1 (antibody, V domains shown)
VH: EVQLVESGGGLVQPGGSLRLSCAASGFTFSDYYMSWVRQAPGKGLEWVGFIRNKANGYTTEYSASVKGRFTISRDDSKNSLYLQMNSLKTEDTAVYYCARYIWFDYWGQGTTVTVSS
VL: DIVMTQTPLSLSVTPGQPASISCRSSQSLVHTNGNTYLHWYLQKPGQSPQLLIYMVSNRFSGVPDRFSGSGSGTDFTLKISRVEAEDVGVYYCSQSAHVPPLTFGQGTRLEIKR
notes: also called 4B10-Humanized; 4B10 humanized (H1/K1)
- EC50 [2]: 2.23 µg/mL

B3: chimeric 12G6 antibody (antibody, human IgG1, V domains shown)
VH: EVQLEESGGGLVQPGGSMKLSCVASGFPFSNYWMNWVRQSPEKGLEWVAQIRLKSNNYATHYAESVKGRFTIARDDSKSSVYLQMNNLRAEDTGIYYCTPIDYWGQGTTLTVSS
VL: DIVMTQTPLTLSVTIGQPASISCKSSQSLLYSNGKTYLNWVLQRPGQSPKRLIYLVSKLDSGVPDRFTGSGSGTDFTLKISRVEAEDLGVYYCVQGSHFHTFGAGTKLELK
notes: also called 12G6-Chi; 12G6-chimeric
- EC50 [3]: 22.4 nM
- EC50 [4]: 34.4 nM
- EC50 [2]: 0.95 µg/mL

B6: humanized antibody 12G6-SFD1/K11 (antibody, human IgG1, V domains shown)
VH: EVQLVESGGGLVQPGGSLRLSCAASGFPFSNYWMNWVRQAPGKGLEWVGQIRLKSNNYATHYAESVKGRFTISRDDSKNSLYLQMNSLKTEDTAVYYCTPIDYWGQGTTVTVSS
VL: DIVMTQTPLSLSVTPGQPASISCKSSQSLLYSNGKTYLNWVLQKPGQSPKRLIYLVSKLDSGVPDRFSGSGSGTDFTLKISRVEAEDVGVYYCVQGSHFHTFGQGTKLEIK
notes: also called 12G6 K11; 12G6 hu
- EC50 [3]: 7.3 nM
- EC50 [4]: 13.2 nM

B7: humanized antibody 2C3-SFD1/K12 (antibody, V domains shown)
VH: B6 VH with P28T, S30N, N31T, I101V, Y103F
VL: DIVMTQTPLSLSVTPGQPASISCKSSQSLLYSNGKTYLNWLLQKPGQSPQRLIYLVSKLDSGVPDRFSGSGSGTDFTLKISRVEAEDVGVYYCVQGTHLHTFGQGTRLEIKR
notes: also called 2C3 K12; 2C3 unmodified
- binding result [5]: binds
- binding result [6]: binds
- binding result [7]: binds
- binding result [8]: binds
- binding result [9]: binds
- binding result [10]: binds
- binding result [11]: binds
- binding result [12]: binds
- binding result [13]: binds
- binding result [14]: binds
- EC50 [3]: 11 nM
- EC50 [4]: 13.6 nM
- fold lower EC50 than Campath-1H® [15]: 2 fold

B9: humanized antibody 9D9-H16/K13 (antibody, V domains shown)
VH: EVQLLESGGGLVQPGGSLRLSCAASGFTFSDAWMDWVRQAPGKGLELVSEIRNKAKNHATYYAESVKGRFTISRDNSKNTLYLQMNSLRAEDTAVYYCTTLDSWGQGTTVTVSS
VL: DIVMTQTPLSLSVTPGQPASISCKSSQSLLDSDGKTYLNWLLQKPGQSPQRLIYLVSALDSGVPDRFSGSGSGTDFTLKISRVEAEDVGVYYCWQGTHFPWTFGQGTKLEIKR
- binding result [5]: binds
- binding result [6]: binds
- binding result [7]: binds
- binding result [8]: binds
- binding result [9]: binds
- binding result [10]: binds
- binding result [17]: binds
- binding result [11]: binds
- binding result [18]: binds
- binding result [12]: binds
- binding result [14]: binds

Further lines, results first:

- EC50 [3]: 25.9 nM
- EC50 [4]: 30.8 nM
- EC50 [2]: 1.32 µg/mL
B4: chimeric 2C3 antibody (antibody, human IgG1, V domains shown)
VH: B3 VH with Q3K, P28T, S30N, N31T, A73S, S79N, I101V, Y103F
VL: DIVITQTPLTLSVTIGQPVSISCKSSQSLLYSNGKTYLNWLLQRPGQSPKRLIYLVSKLDSGVPDRFTGSGSGTDFTLKISRVEAEDLGVYYCVQGTHLHTFGAGTKLELK
notes: also called 2C3-Chi; 2C3-chimeric

- EC50 [3]: 21.9 nM
- EC50 [4]: 25.1 nM
- EC50 [2]: 1.36 µg/mL
B5: Campath-1H® (alemtuzumab) (antibody, IgG1, V domains shown)
VH: QVQLQESGPGLVRPSQTLSLTCTVSGFTFTDFYMNWVRQPPGRGLEWIGFIRDKAKGYTTEYNPSVKGRVTMLVDTSKNQFSLRLSSVTAADTAVYYCAREGHTAAPFDYWGQGSLVTVSS
VL: DIQMTQSPSSLSASVGDRVTITCKASQNIDKYLNWYQQKPGKAPKLLIYNTNNLQTGVPSRFSGSGSGTDFTFTISSLQPEDIATYYCLQHISRPRTFGQGTKVEIKR
notes: Humanized IgG1/kappa; also called C1H; C-1H; copies: 2 + 2

- binding result [6]: binds
- binding result [7]: binds
- binding result [8]: binds
- binding result [9]: binds
- binding result [10]: binds
- binding result [11]: binds
- binding result [12]: binds
- binding result [13]: binds
- binding result [14]: binds
- binding result [16]: binds
- EC50 [3]: 10.6 nM
B8: humanized antibody 12G6-SFD1/K12 (antibody, V domains shown)
VH: B6 VH
VL: B7 VL with L41V, T97S, L99F, R107K
notes: also called 12G6 K12; GLD52

Reference: patent US20120100152A1 (Sanofi, published 2012)
